Experimental data taken from patent publication US20140323699A1 (CALIFORNIA INSTITUTE OF TECHNOLOGY, published 2014).

Target: T1, glycosylated synapsin I from olfactory bulb lysate (rat, UniProt P09951 1-704, limits assumed, Fucα(1-2)Gal glycosylated (sites not given))
T1 construct: Endogenous protein in tissue lysate, detected by Western blot with mouse anti-synapsin I ascites
Assay: lectin affinity chromatography on UEAI-agarose, elution with 200 mM L-fucose, Western blot for synapsin I

B1: UEAI lectin conjugated to agarose (Vector Laboratories) (other, UniProt P22972 1-243, looked up)
chain: SDDLSFKFKNFSQNGKDLSFQGDASVIETGVLQLNKVGNNLPDETGGIARYIAPIHIWNCNTGEVASFITSFSFFMETSANPKAATDGLTFFLAPPDSPLRRAGGYFGLFEDTKDNDSSYQTVAVEFDTIGSPVNFDDPGFPHIGIDVNRVKSINAERWNKRYGLNNVANVEIIYEASSKTLTASLTYPSDQTSISVTSIVDLKEILPEWVSVGFSGGTYIGRQATHEVLNWYFTSNLINTNS
modifications: conjugated to agarose
B1: no binding (tested: 500 µg lysate).
